One assay addresses T1, GDF15-mFC protein (human; mouse, UniProt Q99988 197-308).
T1 construct: extracellular domain;domain: IgG2a-FC; also called GDF15-mFc fusion protein
T1 sequence (looked up): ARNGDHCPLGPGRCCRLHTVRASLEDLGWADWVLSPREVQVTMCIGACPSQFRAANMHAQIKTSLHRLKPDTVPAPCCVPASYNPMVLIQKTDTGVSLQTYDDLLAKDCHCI
Nature of the assay: blocking ELISA as in Example 4, GFRAL-hIgG1 Fc coated (competitor), GDF15-mFC mixed with antibody. The method, then: A fusion protein comprising the extracellular region of GFRAL protein (Genbank accession number NM_207410.2) and human IgG1-FC (Genbank accession number CAC20454.1) was diluted to […] with coating solution, followed by adding to ELISA plate at 50 μl/well and incubating at 4° C. overnight. The solution in the wells was discarded and the plate was washed 3 times with washing solution, each time for 3-5 minutes, and dried via tapping. 200 μl of blocking solution was added to each well followed by incubating at 4° C. overnight. The plate was washed 3 times with washing solution, and the coated plate may be stored at −20° C. or 4° C. for future use.
The antibodies to be tested, positive control antibody AV380-mIgG1 and blank control (PBS) were added to the wells. […] At the same time, GDF15-mFC protein (GDF15: Genbank accession number NM_004864.3; mFC: Genbank accession number AAH31470.1) was added at 20 ng/well and mixed with the antibodies to be tested. The wells were incubated at 37° C. for 1 hour, washed, and dried via tapping. Then the enzyme-labeled secondary antibody, horseradish peroxidase-labeled goat anti-mouse IgG (SIGMA, catalog number A9044-2 ml) was added to each well, at a dilution of 1:10000, 50-100 μl/well. The wells were incubated at 37° C. for 2 hours, washed, and dried via tapping. 100 μl of freshly prepared developing solution TMB was added to each well and incubated at 37° C. for 30 minutes. 2 mol/L H₂SO₄ was added to terminate the reaction, and the OD value was obtained on an enzyme-linked immunosorbent reader.
The experiment was performed as detailed in Example 4, except that the antibodies to be tested (the humanized antibodies), negative control antibody (hIgG1), and positive control antibodies Ponsegromab and AV380-hIgG1 were added to each well of the coated plate.
On the technique in general: An ELISA detects its analyte on a solid surface through an enzyme-linked reagent.

The target of another assay is T2, cynoGDF15-mFC (monkey (cyno); mouse, UniProt G7PWZ3 197-308).
T2 construct: also called monkey GDF15 (cynoGDF15)
T2 sequence (looked up): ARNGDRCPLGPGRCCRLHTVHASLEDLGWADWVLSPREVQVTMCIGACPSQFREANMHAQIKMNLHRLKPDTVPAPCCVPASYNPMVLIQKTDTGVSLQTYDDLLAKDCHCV
Nature of the assay: ELISA, cynoGDF15-mFC coated. The procedure:
The experiment was performed as detailed in Example 2, except that the coating protein was cynoGDF15-mFC (GDF15: Genbank accession number EHH29815.1; mFC: Genbank accession number AAH31470.1), and the antibodies to be tested (the humanized antibodies), negative control antibody (hIgG1), and positive control antibodies Ponsegromab and AV380-hIgG1 were added to each well of the coated plate.

The target of assay [1] is T3, GDF15-HIS (ACROBiosystems, CAT #: GD5-H5149) (human, UniProt Q99988 197-308).
T3 construct: Bought protein; also called GDF15 (ACROBiosystems, GD5-H5149); human GDF15; not shown: His tag
T3 sequence (looked up): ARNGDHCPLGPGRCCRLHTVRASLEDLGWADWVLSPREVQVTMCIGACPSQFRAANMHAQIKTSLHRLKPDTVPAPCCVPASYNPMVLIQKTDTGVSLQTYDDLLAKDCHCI
Nature of the assay: ELISA in stability test, antibody before treatment; coated antigen not named.

For assay [2], the target named is T3, GDF15-HIS (ACROBiosystems, CAT #: …). Nature of the assay: BLI (ForteBio Octet), antibody immobilised, GDF15 200-6.25 nM.
Assay [3] has the same target. Nature of the assay: ELISA, GDF15-HIS coated. The procedure: The experiment was performed as detailed in Example 2, except that the coating protein was GDF15-HIS (ACROBiosystems, CAT #: GD5-H5149), and the antibodies to be tested (the humanized antibodies), negative control antibody (hIgG1), positive control antibodies Ponsegromab (Pfizer; Drug Bank: D11909) and AV380-hlgG1 (the heavy chain and light chain constant regions of AV380-mIgG1 were replaced with the constant regions of human IgG, i.e., SEQ ID NO. 5 and SEQ ID NO. 6) were added to each well of the coated plate.

Assay [4] has the same target. Nature of the assay: ELISA on human GDF15, antibody after 2 weeks at 37 °C in plasma. The method, then:
(§1) […] of the antibodies to be tested (final concentration 1 mg/ml) were added to 200 μl of plasma and PBS, respectively, tightly sealed and placed at 37° C. for 2 weeks. The change of protein binding activity was detected by ELISA.

The target is the same in assay [5]. Nature of the assay: ELISA in stability test, antibody after pH 3.6 for 2-4 h; coated antigen not named. The procedure:
An appropriate amount of each antibody was taken and adjusted to 5 mg/mL in storage buffer adjusted to pH 3.6 using an ultrafiltration tube. The antibodies were placed at room temperature for 2-4 hours, then protein aggregation was detected using SEC-HPLC, and protein binding activity change was detected by ELISA.

For assay [6] the target is unchanged. Nature of the assay: ELISA in stability test, antibody after 40 °C for 1 week; coated antigen not named. The method, then: (§2) An appropriate amount of each antibody was taken and adjusted to 10 mg/mL, and was placed at 40° C. for 1 and 2 weeks. Protein aggregation was detected using SEC-HPLC, and protein binding activity change was detected by ELISA.
For assay [7] the target is unchanged. Nature of the assay: ELISA on human GDF15, antibody after 2 weeks at 37 °C in PBS. The procedure: as §1
For assay [8] the target is unchanged. Nature of the assay: ELISA in stability test, antibody after 5 freeze-thaw cycles; coated antigen not named. The procedure:
An appropriate amount of each antibody was taken and adjusted to 10 mg/mL, followed by freezing at −80° C. for 10 min, and placing in an ice-water mixture to slowly thaw. The above procedure was repeated 5 times. Protein aggregation was detected using SEC-HPLC, and protein binding activity change was detected by ELISA.

The target is the same in assay [9]. Nature of the assay: ELISA in stability test, antibody after 40 °C for 2 weeks; coated antigen not named. The procedure:
as §2

One may read the IC50 as the concentration that gives 50% inhibition. One may read the EC50 as the concentration that produces a half-maximal response. One may read the Kd as a measure of binding affinity in units of concentration. In general, koff refers to a measure of how fast the partners let go of each other. A word on the kon: it is the rate constant with which the complex forms.

B1: 53A8(hz) (antibody, human IgG1, kappa, V domains shown)
VH: QVQLQESGPGLVKPSETLSLTCTFSGFSLSTSGMGVGWIRQPPGKGLEWLAHIRWDDVKRYNPALKSRLTISKDTSKSQISLKLSSVTAADTAVYYCAQMAWDWFAYWGQGTTVTVSS
VL: DIQMTQSPSSLSASVGDRVTITCKASQNVDTDVAWYQQKPGQSPKALIYSASYRYSGVPSRFSGSGSGTDFTLTISSLQPEDFATYYCHQYNSYPTFGQGTRLEIKR
notes: also called humanized antibody 53A8
In the assay with GDF15-mFC protein, B1 showed a 50% inhibitory concentration (IC50) of 0.283 µg/mL. Besides, the OD450.Max with GDF15-mFC protein was found to be 1.1 OD450; in the assay with cynoGDF15-mFC, 1.03 OD450; in assay [3] it was 1.05 OD450. The EC50 with cynoGDF15-mFC worked out at 0.0775 µg/mL; in [1] it was 0.0412 µg/mL; in assay [3], 0.0827 µg/mL; in assay [4] it was 0.0413 µg/mL; in assay [5] it was 0.0691 µg/mL; in [6], 0.0643 µg/mL. Moreover, the values for the concentration giving a half-maximal response (EC50) in assay [7], in [8] and in [9] were 0.113 µg/mL, 0.0673 µg/mL and 0.0296 µg/mL, respectively. In assay [2], this molecule came in with a Kd of 0.266 nM. In [2], this molecule displayed a koff of 0.000257 s⁻¹. Moreover, in [2], the association rate constant (kon) turned out to be 967000 M⁻¹ s⁻¹.

For the origin of these results see patent US20250092124A1 (YUNNAN BAIYAO GROUP, published 2025).
